Reference: patent US11505783B2, “Differentiation of human embryonic stem cells” (Janssen Biotech, Inc., priority 2007, dated 2022)
Like-named read-outs stand apart in the source and are kept apart here.

What was measured:
[1] = system: human embryonic stem cell line H1; settings: 1-10 μm at stages 4 and 5; end of stages 4 to 5; compared to controls (standard treatment)
Method: Next the cultures were treated with DMEM/F12+2% FBS+20 ng/ml FGF7+0.25 μm Cyclopamine-KAAD (#239804, Calbiochem, CA) for three days followed by four day incubation in DMEM/F12+1% B27 (Invitrogen, CA)+20 ng/ml FGF7+0.25 μm Cyclopamine-KAAD+2 μm Retinoic acid (RA) (Sigma, MO).
Next, cells were cultured in DMEM/F12+1% B27 (Invitrogen, CA)+50 ng/ml Exendin-4 (Sigma, MO)+1 μm DAPT (Calbiochem, CA) for six days followed by additional three days incubation in DMEM/F12+1% B27 (Invitrogen, CA)+50 ng/ml Exendin-4 (Sigma, MO)+50 ng/ml IGF (Peprotech, N.J.)+50 ng/ml HGF (R&D Systems, MN).

[2] = system: human embryonic stem cell line H1; settings: end of stage 5, real-time PCR
Method: (§1) Cells of the human embryonic stem cell line H1, at passage 51 were cultured on […]™ coated dishes (1:30 dilution) and exposed to DMEM/F12 medium supplemented with 0.5% FBS, and 100 ng/ml Activin-A (R&D Systems, MN) plus 20 ng/ml WNT-3a (Catalog #1324-WN-002, R&D Systems, MN), for two days followed by treatment with DMEM/F12 media supplemented with 2% FBS and 100 ng/ml Activin-A (AA) for an additional two days. Next the cultures were treated with DMEM/F12+2% FBS+20 ng/ml FGF7+0.25 μm Cyclopamine-KAAD (#239804, Calbiochem, CA) for three days followed by four day incubation in DMEM/F12+1% B27 (Invitrogen, CA)+20 ng/ml FGF7+0.25 μm Cyclopamine-KAAD+2 μm Retinoic acid (RA) (Sigma, MO).
Next, the cells were cultured in DMEM/F12+1% B27 (Invitrogen, CA)+50 ng/ml Exendin-4 (Sigma, MO)+1 μm DAPT (Calbiochem, CA) for six days followed by additional three days incubation in DMEM/F12+1% B27 (Invitrogen, CA)+50 ng/ml Exendin-4 (Sigma, MO)+50 ng/ml IGF (Peprotech, N.J.)+50 ng/ml HGF (R&D Systems, MN). Some of the cultures were treated with 1 μM of the following compounds at either stage 3, stage 4, or stages 3+4: MEK/MAPK inhibitor (2′-Amino-3′-methoxyflavone) (PD98059, Calbiochem, CA), RAF kinase inhibitor (5-Iodo-3-R3,5-dibromo-4-hydroxyphenyl)methylenel-2-indolinone) (#553008, Calbiochem, CA), SMAD3 inhibitor (6,7-Dimethyl-2-((2E)-3-(1-methyl-2-phenyl-1Hpyrrolo[2,3-b]pyridin-3-yl-prop-2-enoyl))-1,2,3,4-tetrahydroisoquinoline) (#566405, Calbiochem, CA), AKT inhibitor (1L6-Hydroxymethyl-chiroinositol-2-(R)-2-O-methyl-3-O-octadecyl-sn-glycerocarbonate) (#124005, Calbiochem, CA), MEK inhibitor (#444937 Calbiochem, CA), and TGF-B receptor I inhibitor (2-(3-(6-Methylpyridin-2-yl)-1H-pyrazol-4-yl)-1,5-naphthyridine) (inhibits activin receptor-like kinase 5, #616452, Calbiochem, CA).

[3] = system: human embryonic stem cell line H1; settings: end of stage 5, real-time PCR; remark: listed apart in the source
Method: as §1, with “44” for “51”
Next, cells were cultured in DMEM/F12+1% B27 (Invitrogen, CA)+50 ng/ml Exendin-4 (Sigma, MO)+1 μm DAPT (Calbiochem, CA) for six days followed by additional three days incubation in DMEM/F12+1% B27 (Invitrogen, CA)+50 ng/ml Exendin-4 (Sigma, MO)+50 ng/ml IGF (Peprotech, N.J.)+50 ng/ml HGF (R&D Systems, MN). Some of the cultures were treated with 1 μM of TGF-B receptor I kinase inhibitor (2-(3-(6-Methylpyridin-2-yl)-1H-pyrazol-4-yl)-1,5-naphthyridine) (an inhibitor of activin receptor-like kinase 5, #616452, Calbiochem, CA) at stage 4, stage 5, or stages 4 and 5.

[4] = system: human embryonic stem cell line H1; assay: Real-time PCR of markers, Noggin at stages 3 and/or 4 with ALK5 inhibitor II at stages 4 and 5 (Example 7); type: cell-based
Description: FIGS. 8A-8D depict a phase contrast image of the cultures according to the above protocol. In some of the cultures, stage 5 was extended from 3 days to 21 days. By day 10-12 of culture in stage 5 media, there were distinct clusters of cells resembling human islets present throughout the culture plate. FIGS. 8A-8B show images of day 6 cultures in stage 5 while FIGS. 8C-8D show images of day 12 stage 5 cultures. Some of the clusters were manually removed, plated on 1:30 […]-coated plates in stage 5 media. After 2 days of incubation, the clusters were stained for insulin and glucagon. The majority of the cells in the clusters as shown in FIGS. 9A-9B were positive for human insulin. In order to further optimize the dose of the BMP inhibitor, Noggin; cultures were treated at stage 2-4 with 0, 10, 50, or 100 ng/ml of Noggin. FIG. 10 depicts expression of NGN3 at stage 4 for cultures treated with varying doses of Noggin at stages 2-4.

[5] = system: human embryonic stem cell line H1; assay: Real-time PCR of markers, Noggin at stages 3-4, Netrin-4 and ALK5 inhibitor II at stage 4 (Example 8); type: cell-based
[6] = system: human embryonic stem cell line H1; assay: Real-time PCR of markers, Noggin at stage 3 with ALK5 inhibitor II at stages 4 and 5 (Example 6); type: cell-based
Method: Cells of the human embryonic stem cell line H1, at passage 41 were cultured on […] ™ coated dishes (1:30 dilution) and exposed to DMEM/F12 medium supplemented with 0.5% FBS, and 100 ng/ml Activin-A (R&D Systems, MN) plus 20 ng/ml WNT-3a (Catalog #1324-WN-002, R&D Systems, MN), for two days followed by treatment with DMEM/F12 media supplemented with 2% FBS and 100 ng/ml Activin-A (AA) for an additional two days. Next the cultures were treated with DMEM/F12+2% FBS+20 ng/ml FGF7+0.25 μm Cyclopamine-KAAD (#239804, Calbiochem, CA) for three days followed by four day incubation in DMEM/F12+1% B27 (Invitrogen, CA)+20 ng/ml FGF7+0.25 μm Cyclopamine-KAAD+2 μm Retinoic acid (RA) (Sigma, MO)+0-500 ng/ml of Noggin (R & D Systems, MN).

[7] = 1 μM added at stage 4 or stages 3 and 4
[8] = 1 μM added at stage 4 or stages 4 and 5
[9] = Noggin at both stages 3 and 4, compared to untreated samples
[10] = omission of Noggin at stage 4, Netrin-4 plus Alk5 inhibitor added, end of stage 5

Cc1cccc(-c2n[nH]cc2-c2ccc3ncccc3n2)n1 [ALK5 inhibitor II, 2-(3-(6-Methylpyridin-2-yl)-1H-pyrazol-4-yl)-1,5-naphthyridine]
expression of insulin, glucagon, PDX-1 and NeuroD [1]: significantly enhanced
expression of PDX-1 [2, 7]: marginally affecting
expression of insulin, glucagon, NeuroD, and NKX2.2 [2, 7]: significantly enhanced
expression of endocrine markers ([2]; 1 μM added only at stage 3): marginally upregulated
expression of PDX-1 [3, 8]: marginally affecting
expression of insulin, glucagon, NeuroD, and NKX2.2 [3, 8]: significantly enhanced
expression of endocrine markers ([3]; 1 μM added only at stage 5): marginally upregulated

B1: Noggin: recombinant human Noggin, BMP inhibitor (R & D Systems) (protein, UniProt Q13253 28-232, looked up)
Noggin: QHYLHIRPAPSDNLPLVDLIEHPDPIFDPKEKDLNETLLRSLLGGHYDPGFMATSPPEDRPGGGGGAAGGAEDLAELDQLLRQRPSGAMPSEIKGLEFSEGLAQGKKQRLSKKLRRKLQMWLWSQTFCPVLYAWNDLGSRFWPRYVKVGSCFSKRSCSVPEGMVCKPSKSVHLTVLRWRCQRRGGQRCGWIPIQYPIISECKCSC
expression of insulin and glucagons ([4]; 100 ng/ml Noggin at stage 3+4 plus ALK5 inhibitor II, stages 4-5): dramatically enhanced
expression of NGN3 [4, 9]: significantly enhanced
expression of albumin and CDX2 [4, 9]: significantly suppressing
Noggin concentration resulting in maximal expression of NGN3 at stage 4 ([4]; cultures treated at stage 2-4 with 0, 10, 50, or 100 ng/ml): 50 to 100 ng/mL
expression of NGN3, NKX2.2, and NeuroD [5, 10]: significantly reduce
expression of insulin and glucagon [5, 10]: moderately affecting
expression of albumin and CDX2 ([6]; 100 ng/ml at stage 3, compared to untreated samples): significantly suppressing
expression of insulin and glucagon ([6]; 100 ng/ml at stage 3, end of stage 4, 1 μm ALK5 inhibitor II at stages 4 and 5): marginally enhanced
expression of PDX-1 ([6]; 500 ng/ml at stage 3): did not affect
expression of endocrine markers, along with albumin and CDX2 ([6]; 500 ng/ml at stage 3): significantly diminish

B2: Netrin-4: netrin protein added at 100 ng/ml (R&D Systems) (protein, UniProt Q9HB63 19-628, looked up)
Netrin-4: GLSGVAGVSSRCEKACNPRMGNLALGRKLWADTTCGQNATELYCFYSENTDLTCRQPKCDKCNAAYPHLAHLPSAMADSSFRFPRTWWQSAEDVHREKIQLDLEAEFYFTHLIVMFKSPRPAAMVLDRSQDFGKTWKPYKYFATNCSATFGLEDDVVKKGAICTSKYSSPFPCTGGEVIFKALSPPYDTENPYSAKVQEQLKITNLRVQLLKRQSCPCQRNDLNEEPQHFTHYAIYDFIVKGSCFCNGHADQCIPVHGFRPVKAPGTFHMVHGKCMCKHNTAGSHCQHCAPLYNDRPWEAADGKTGAPNECRTCKCNGHADTCHFDVNVWEASGNRSGGVCDDCQHNTEGQYCQRCKPGFYRDLRRPFSAPDACKPCSCHPVGSAVLPANSVTFCDPSNGDCPCKPGVAGRRCDRCMVGYWGFGDYGCRPCDCAGSCDPITGDCISSHTDIDWYHEVPDFRPVHNKSEPAWEWEDAQGFSALLHSGKCECKEQTLGNAKAFCGMKYSYVLKIKILSAHDKGTHVEVNVKIKKVLKSTKLKIFRGKRTLYPESWTDRGCTCPILNPGLEYLVAGHEDIRTGKLIVNMKSFVQHWKPSLGRKVMDILKRECK
expression of NGN3, NeuroD, and Pax4 ([5]; 100 ng/ml Netrin-4 and ALK5 inhibitor II at stage 4 plus 100 ng/ml Noggin at stage 3 and 4): dramatically enhanced
